Source: IntAct's records for PubMed 35512704

B1: Speckle-type POZ protein (Homo sapiens), O43791 (parent)
chain: MSRVPSPPPPAEMSSGPVAESWCYTQIKVVKFSYMWTINNFSFCREEMGEVIKSSTFSSGANDKLKWCLRVNPKGLDEESKDYLSLYLLLVSCPKSEVRAKFKFSILNAKGEETKAMESQRAYRFVQGKDWGFKKFIRRDFLLDEANGLLPDDKLTLFCEVSVVQDSVNISGQNTMNMVKVPECRLADELGGLWENSRFTDCCLCVAGQEFQAHKAILAARSPVFSAMFEHEMEESKKNRVEINDVEPEVFKEMMCFIYTGKAPNLDKMADDLLAAADKYALERLKVMCEDALCSNLSVENAAEILILADLHSADQLKTQAVDFINYHASDVLETSGWKSMVVSHPHLVAEAYRSLASAQCPFLGPPRKRLKQS

Variants of: B1
Conditions: with brd4_human BRD4, O60885

effect of a mutation on the interaction | Variant
disrupting interaction strength | F102C

Variants of: B1
Conditions: with ncoa3_human NCOA3, Q9Y6Q9

effect of a mutation on the interaction | Variant
disrupting interaction strength | F102C

Variants of: B1
Conditions: with jun_human JUN

effect of a mutation on the interaction | Variant
disrupting interaction strength | F102C

Variants of: B1
Conditions: with akt1_human AKT1, P31749
Chain of akt1_human AKT1, P31749 (P31749 whole entry): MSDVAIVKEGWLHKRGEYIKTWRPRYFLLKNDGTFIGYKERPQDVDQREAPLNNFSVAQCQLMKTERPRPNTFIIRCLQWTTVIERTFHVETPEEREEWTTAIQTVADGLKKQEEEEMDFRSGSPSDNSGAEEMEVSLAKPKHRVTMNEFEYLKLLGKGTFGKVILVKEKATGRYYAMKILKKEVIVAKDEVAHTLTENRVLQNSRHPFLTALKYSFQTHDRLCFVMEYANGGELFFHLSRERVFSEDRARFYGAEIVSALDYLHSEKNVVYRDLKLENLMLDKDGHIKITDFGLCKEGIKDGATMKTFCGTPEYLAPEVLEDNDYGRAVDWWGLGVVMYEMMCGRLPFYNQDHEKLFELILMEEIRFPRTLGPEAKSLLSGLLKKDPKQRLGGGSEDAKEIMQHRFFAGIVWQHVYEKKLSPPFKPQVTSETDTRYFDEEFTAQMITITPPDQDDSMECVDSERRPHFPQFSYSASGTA

effect of a mutation on the interaction | Variant
with no effect | F102C

Variants of: B1
Conditions: with alk_human ALK

effect of a mutation on the interaction | Variant
with no effect | F102C

Variants of: B1
Conditions: with aph1a_human APH1A

effect of a mutation on the interaction | Variant
with no effect | F102C

Variants of: B1
Conditions: with arnt_human ARNT

effect of a mutation on the interaction | Variant
with no effect | F102C

Variants of: B1
Conditions: with arc1a_human ARPC1A

effect of a mutation on the interaction | Variant
with no effect | F102C

Variants of: B1
Conditions: with bakor_human ATG14, Q6ZNE5

effect of a mutation on the interaction | Variant
with no effect | F102C

Variants of: B1
Conditions: with atm_human ATM

effect of a mutation on the interaction | Variant
with no effect | F102C

Variants of: B1
Conditions: with atpb_human ATP5F1B

effect of a mutation on the interaction | Variant
with no effect | F102C

Variants of: B1
Conditions: with aurkb_human AURKB

effect of a mutation on the interaction | Variant
with no effect | F102C

Variants of: B1
Conditions: with axin2_human AXIN2, Q9Y2T1

effect of a mutation on the interaction | Variant
with no effect | F102C

Variants of: B1
Conditions: with ufo_human AXL

effect of a mutation on the interaction | Variant
with no effect | F102C

Variants of: B1
Conditions: with za2g_human AZGP1, P25311

effect of a mutation on the interaction | Variant
with no effect | F102C

Variants of: B1
Conditions: with bap1_human BAP1, Q92560

effect of a mutation on the interaction | Variant
with no effect | F102C

Variants of: B1
Conditions: with bard1_human BARD1, Q99728

effect of a mutation on the interaction | Variant
with no effect | F102C

Variants of: B1
Conditions: with bcor_human BCOR

effect of a mutation on the interaction | Variant
with no effect | F102C

Variants of: B1
Conditions: with birc2_human BIRC2, Q13490
Chain of birc2_human BIRC2, Q13490 (Q13490 whole entry): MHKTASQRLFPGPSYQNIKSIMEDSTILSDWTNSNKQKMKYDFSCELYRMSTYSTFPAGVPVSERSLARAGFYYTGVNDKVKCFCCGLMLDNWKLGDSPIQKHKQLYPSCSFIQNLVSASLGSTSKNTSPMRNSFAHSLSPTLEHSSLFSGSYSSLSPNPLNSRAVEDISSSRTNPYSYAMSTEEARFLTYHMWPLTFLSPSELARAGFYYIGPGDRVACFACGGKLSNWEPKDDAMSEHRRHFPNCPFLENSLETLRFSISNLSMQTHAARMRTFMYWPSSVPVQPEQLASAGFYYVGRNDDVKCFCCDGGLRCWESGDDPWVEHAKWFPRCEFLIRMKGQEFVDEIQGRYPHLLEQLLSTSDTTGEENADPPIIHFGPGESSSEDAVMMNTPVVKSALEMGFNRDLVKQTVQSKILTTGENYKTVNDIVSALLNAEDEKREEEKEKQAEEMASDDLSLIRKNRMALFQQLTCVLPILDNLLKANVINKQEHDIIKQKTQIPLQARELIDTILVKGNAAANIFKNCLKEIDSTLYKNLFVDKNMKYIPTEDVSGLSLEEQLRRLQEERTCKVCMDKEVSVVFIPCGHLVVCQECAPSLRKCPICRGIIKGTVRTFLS

effect of a mutation on the interaction | Variant
with no effect | F102C

Variants of: B1
Conditions: with brd4_human BRD4, O60885
Remark: another data set of the same source

effect of a mutation on the interaction | Variant
with no effect | F102C

Variants of: B1
Conditions: with baba2_human BABAM2, Q9NXR7

effect of a mutation on the interaction | Variant
with no effect | F102C

Variants of: B1
Conditions: with btg1_human BTG1, P62324
Chain of btg1_human BTG1, P62324 (P62324 whole entry): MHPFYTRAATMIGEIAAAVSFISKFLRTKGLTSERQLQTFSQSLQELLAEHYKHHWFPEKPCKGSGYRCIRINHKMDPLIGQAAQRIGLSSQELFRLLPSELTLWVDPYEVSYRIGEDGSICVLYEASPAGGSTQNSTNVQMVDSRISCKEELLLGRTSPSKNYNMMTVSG

effect of a mutation on the interaction | Variant
with no effect | F102C

Variants of: B1
Conditions: with btk_human BTK

effect of a mutation on the interaction | Variant
with no effect | F102C

Variants of: B1
Conditions: with ccnd1_human CCND1, P24385

effect of a mutation on the interaction | Variant
with no effect | F102C

Variants of: B1
Conditions: with ccnd2_human CCND2, P30279
Chain of ccnd2_human CCND2, P30279 (P30279 whole entry): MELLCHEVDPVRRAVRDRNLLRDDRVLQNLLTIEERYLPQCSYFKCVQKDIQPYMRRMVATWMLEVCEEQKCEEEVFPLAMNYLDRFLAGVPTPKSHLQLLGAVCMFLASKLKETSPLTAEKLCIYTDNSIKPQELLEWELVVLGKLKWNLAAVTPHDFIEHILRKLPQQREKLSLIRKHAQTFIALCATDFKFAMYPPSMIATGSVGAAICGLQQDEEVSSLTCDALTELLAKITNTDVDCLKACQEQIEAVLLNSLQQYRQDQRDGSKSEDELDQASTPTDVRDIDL

effect of a mutation on the interaction | Variant
with no effect | F102C

Variants of: B1
Conditions: with ccnd3_human CCND3, P30281
Chain of ccnd3_human CCND3, P30281 (P30281 whole entry): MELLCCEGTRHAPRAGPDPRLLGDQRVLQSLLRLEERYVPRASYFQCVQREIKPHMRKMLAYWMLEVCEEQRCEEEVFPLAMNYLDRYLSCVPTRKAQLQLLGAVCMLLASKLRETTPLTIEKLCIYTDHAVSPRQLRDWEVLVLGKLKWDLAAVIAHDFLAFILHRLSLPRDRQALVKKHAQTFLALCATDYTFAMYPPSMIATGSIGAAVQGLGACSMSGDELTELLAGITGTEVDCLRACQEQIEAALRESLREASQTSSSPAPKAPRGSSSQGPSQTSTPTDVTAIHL

effect of a mutation on the interaction | Variant
with no effect | F102C

Variants of: B1
Conditions: with cd44_human CD44, P16070

effect of a mutation on the interaction | Variant
with no effect | F102C

Variants of: B1
Conditions: with cd79b_human CD79B

effect of a mutation on the interaction | Variant
with no effect | F102C

Variants of: B1
Conditions: with cdc27_human CDC27, P30260

effect of a mutation on the interaction | Variant
with no effect | F102C

Variants of: B1
Conditions: with cdc73_human CDC73, Q6P1J9

effect of a mutation on the interaction | Variant
with no effect | F102C

Variants of: B1
Conditions: with cdk4_human CDK4, P11802
Chain of cdk4_human CDK4, P11802 (P11802 whole entry): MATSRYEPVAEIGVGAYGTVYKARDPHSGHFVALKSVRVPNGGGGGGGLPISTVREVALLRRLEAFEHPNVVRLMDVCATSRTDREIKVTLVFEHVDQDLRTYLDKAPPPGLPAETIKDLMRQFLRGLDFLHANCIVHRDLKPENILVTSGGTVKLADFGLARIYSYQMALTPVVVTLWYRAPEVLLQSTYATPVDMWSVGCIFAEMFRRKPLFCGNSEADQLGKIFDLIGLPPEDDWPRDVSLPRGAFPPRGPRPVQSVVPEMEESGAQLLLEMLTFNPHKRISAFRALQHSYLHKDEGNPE

effect of a mutation on the interaction | Variant
with no effect | F102C

Variants of: B1
Conditions: with cdk6_human CDK6, Q00534

effect of a mutation on the interaction | Variant
with no effect | F102C

Variants of: B1
Conditions: with cdn2c_human CDKN2C

effect of a mutation on the interaction | Variant
with no effect | F102C

Variants of: B1
Conditions: with chd1l_human CHD1L

effect of a mutation on the interaction | Variant
with no effect | F102C

Variants of: B1
Conditions: with chd2_human CHD2, O14647
Chain of chd2_human CHD2, O14647 (O14647 whole entry): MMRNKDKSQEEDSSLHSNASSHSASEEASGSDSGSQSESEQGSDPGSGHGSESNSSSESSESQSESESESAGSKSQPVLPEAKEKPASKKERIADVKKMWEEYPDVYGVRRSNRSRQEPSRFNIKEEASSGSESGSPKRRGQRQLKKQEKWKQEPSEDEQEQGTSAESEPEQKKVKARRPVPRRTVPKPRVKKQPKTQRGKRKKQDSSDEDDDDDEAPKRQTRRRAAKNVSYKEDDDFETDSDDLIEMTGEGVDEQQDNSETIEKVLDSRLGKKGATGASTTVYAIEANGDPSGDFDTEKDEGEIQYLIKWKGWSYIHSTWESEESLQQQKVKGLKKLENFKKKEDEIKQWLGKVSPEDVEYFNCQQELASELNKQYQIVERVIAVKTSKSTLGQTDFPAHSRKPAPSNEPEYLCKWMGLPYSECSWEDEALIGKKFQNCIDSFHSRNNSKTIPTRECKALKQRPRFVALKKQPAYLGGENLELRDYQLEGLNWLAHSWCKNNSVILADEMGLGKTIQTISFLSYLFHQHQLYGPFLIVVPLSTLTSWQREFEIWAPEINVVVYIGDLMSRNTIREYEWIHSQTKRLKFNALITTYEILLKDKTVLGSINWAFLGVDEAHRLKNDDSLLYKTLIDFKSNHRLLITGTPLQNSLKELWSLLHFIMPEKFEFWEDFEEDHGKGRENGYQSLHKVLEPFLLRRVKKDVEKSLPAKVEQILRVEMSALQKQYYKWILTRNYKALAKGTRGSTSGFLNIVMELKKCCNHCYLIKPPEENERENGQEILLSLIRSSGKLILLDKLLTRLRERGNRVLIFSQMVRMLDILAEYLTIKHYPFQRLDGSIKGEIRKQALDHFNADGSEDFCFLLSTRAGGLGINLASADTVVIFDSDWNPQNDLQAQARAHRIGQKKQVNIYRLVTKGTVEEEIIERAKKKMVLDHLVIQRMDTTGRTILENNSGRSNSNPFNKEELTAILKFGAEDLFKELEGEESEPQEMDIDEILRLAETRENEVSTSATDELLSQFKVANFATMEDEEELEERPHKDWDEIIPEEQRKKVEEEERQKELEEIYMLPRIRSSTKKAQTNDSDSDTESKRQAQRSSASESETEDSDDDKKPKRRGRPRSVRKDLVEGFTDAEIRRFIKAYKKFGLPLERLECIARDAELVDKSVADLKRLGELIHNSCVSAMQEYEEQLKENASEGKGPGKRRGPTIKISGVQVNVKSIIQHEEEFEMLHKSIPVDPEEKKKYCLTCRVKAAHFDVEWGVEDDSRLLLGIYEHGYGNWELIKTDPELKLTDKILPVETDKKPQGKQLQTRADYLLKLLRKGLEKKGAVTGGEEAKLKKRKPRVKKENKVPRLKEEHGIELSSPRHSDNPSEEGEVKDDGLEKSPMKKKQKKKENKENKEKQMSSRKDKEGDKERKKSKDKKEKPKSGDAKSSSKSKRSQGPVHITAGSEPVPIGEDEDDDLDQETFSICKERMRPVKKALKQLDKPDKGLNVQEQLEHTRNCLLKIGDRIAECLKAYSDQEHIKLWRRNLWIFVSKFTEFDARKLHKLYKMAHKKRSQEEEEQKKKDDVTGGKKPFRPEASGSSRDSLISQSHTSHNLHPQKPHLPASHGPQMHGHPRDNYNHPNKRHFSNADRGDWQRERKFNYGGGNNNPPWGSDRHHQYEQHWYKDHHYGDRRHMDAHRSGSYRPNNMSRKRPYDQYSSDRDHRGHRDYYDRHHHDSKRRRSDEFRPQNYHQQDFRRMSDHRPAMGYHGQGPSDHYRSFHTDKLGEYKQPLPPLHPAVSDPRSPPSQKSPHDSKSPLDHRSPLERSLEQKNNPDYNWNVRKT

effect of a mutation on the interaction | Variant
with no effect | F102C

Variants of: B1
Conditions: with ch3l1_human CHI3L1, P36222

effect of a mutation on the interaction | Variant
with no effect | F102C

Variants of: B1
Conditions: with ctla4_human CTLA4, P16410

effect of a mutation on the interaction | Variant
with no effect | F102C

Variants of: B1
Conditions: with cul3_human CUL3, Q13618

effect of a mutation on the interaction | Variant
with no effect | F102C

Variants of: B1
Conditions: with cul4b_human CUL4B

effect of a mutation on the interaction | Variant
with no effect | F102C

Variants of: B1
Conditions: with daxx_human DAXX

effect of a mutation on the interaction | Variant
with no effect | F102C

Variants of: B1
Conditions: with ddx5_human DDX5, P17844

effect of a mutation on the interaction | Variant
with no effect | F102C

Variants of: B1
Conditions: with dll3_human DLL3, Q9NYJ7

effect of a mutation on the interaction | Variant
with no effect | F102C

Variants of: B1
Conditions: with duox2_human DUOX2, Q9NRD8

effect of a mutation on the interaction | Variant
with no effect | F102C

Variants of: B1
Conditions: with e2f2_human E2F2, Q14209

effect of a mutation on the interaction | Variant
with no effect | F102C

Variants of: B1
Conditions: with e2f3_human E2F3, O00716

effect of a mutation on the interaction | Variant
with no effect | F102C

Variants of: B1
Conditions: with e2f5_human E2F5, Q15329

effect of a mutation on the interaction | Variant
with no effect | F102C

Variants of: B1
Conditions: with e2f6_human E2F6, O75461

effect of a mutation on the interaction | Variant
with no effect | F102C

Variants of: B1
Conditions: with e2f8_human E2F8, A0AVK6

effect of a mutation on the interaction | Variant
with no effect | F102C

Variants of: B1
Conditions: with if4e_human EIF4E

effect of a mutation on the interaction | Variant
with no effect | F102C

Variants of: B1
Conditions: with epha7_human EPHA7, Q15375

effect of a mutation on the interaction | Variant
with no effect | F102C

Variants of: B1
Conditions: with ephb1_human EPHB1, P54762

effect of a mutation on the interaction | Variant
with no effect | F102C

Variants of: B1
Conditions: with erbb3_human ERBB3, P21860

effect of a mutation on the interaction | Variant
with no effect | F102C

Variants of: B1
Conditions: with erbb4_human ERBB4, Q15303

effect of a mutation on the interaction | Variant
with no effect | F102C

Variants of: B1
Conditions: with esr1_human ESR1, P03372

effect of a mutation on the interaction | Variant
with no effect | F102C

Variants of: B1
Conditions: with etv1_human ETV1, P50549

effect of a mutation on the interaction | Variant
with no effect | F102C

Variants of: B1
Conditions: with ezh1_human EZH1, Q92800

effect of a mutation on the interaction | Variant
with no effect | F102C

Variants of: B1
Conditions: with ezh2_human EZH2, Q15910
Chain of ezh2_human EZH2, Q15910 (Q15910 whole entry, looked up): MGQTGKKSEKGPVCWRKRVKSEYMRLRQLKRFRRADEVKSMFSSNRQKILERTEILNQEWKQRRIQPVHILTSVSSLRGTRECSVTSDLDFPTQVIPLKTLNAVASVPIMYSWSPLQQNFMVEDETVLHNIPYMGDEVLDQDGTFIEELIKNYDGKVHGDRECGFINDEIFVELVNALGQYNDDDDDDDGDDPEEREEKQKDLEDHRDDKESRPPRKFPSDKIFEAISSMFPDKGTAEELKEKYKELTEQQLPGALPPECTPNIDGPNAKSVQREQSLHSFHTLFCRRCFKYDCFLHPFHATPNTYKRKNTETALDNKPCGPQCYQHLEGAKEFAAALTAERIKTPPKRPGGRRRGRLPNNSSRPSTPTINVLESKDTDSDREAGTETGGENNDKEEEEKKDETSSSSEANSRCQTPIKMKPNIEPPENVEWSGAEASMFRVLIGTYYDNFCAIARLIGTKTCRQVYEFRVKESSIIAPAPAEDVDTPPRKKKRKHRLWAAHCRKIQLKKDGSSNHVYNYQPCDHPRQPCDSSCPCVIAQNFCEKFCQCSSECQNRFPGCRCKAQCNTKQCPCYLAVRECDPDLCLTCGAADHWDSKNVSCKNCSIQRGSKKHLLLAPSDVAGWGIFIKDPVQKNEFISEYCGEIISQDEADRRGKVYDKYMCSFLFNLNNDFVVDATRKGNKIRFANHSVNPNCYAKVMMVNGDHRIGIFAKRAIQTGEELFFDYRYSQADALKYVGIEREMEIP

effect of a mutation on the interaction | Variant
with no effect | F102C

Variants of: B1
Conditions: with facd2_human FANCD2, Q9BXW9

effect of a mutation on the interaction | Variant
with no effect | F102C

Variants of: B1
Conditions: with fgf19_human FGF19, O95750
Chain of fgf19_human FGF19, O95750 (O95750 whole entry): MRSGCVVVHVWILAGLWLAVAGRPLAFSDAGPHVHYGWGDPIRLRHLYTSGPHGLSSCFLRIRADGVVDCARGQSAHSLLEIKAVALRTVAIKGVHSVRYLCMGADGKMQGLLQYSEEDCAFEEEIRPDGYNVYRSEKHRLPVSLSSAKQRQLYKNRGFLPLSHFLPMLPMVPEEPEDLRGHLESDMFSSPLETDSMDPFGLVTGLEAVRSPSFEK

effect of a mutation on the interaction | Variant
with no effect | F102C

Variants of: B1
Conditions: with fgfp1_human FGFBP1, Q14512

effect of a mutation on the interaction | Variant
with no effect | F102C
